In data set [1] the test system is T1, synthetic phosphotyrosine peptide Arg-Arg-Leu-Ile-Glu-Asp-Ala-Gle-Tyr-Ala-Ala-Arg-Gly, wherein the tyrosine is phosphorylated.
T1 sequence: RRLIEDAEYAARG

Data set [2] addresses T2, MKP1 (Homo sapiens, UniProt P28562).
T2 construct: made in house; host or cells: E. coli DH5a
T2 sequence (P28562 13-367 limits assumed): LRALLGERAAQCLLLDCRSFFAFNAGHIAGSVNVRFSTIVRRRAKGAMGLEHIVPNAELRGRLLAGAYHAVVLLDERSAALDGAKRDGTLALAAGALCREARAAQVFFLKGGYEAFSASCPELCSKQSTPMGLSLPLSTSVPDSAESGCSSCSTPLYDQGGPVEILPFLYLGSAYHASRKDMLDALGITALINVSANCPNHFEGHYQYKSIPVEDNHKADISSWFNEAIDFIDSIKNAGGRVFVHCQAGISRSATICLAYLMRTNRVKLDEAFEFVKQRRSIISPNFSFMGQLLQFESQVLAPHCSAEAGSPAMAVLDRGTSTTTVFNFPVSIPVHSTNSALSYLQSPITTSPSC
The data set is described as follows: In vitro PTPase assay, GST/MKP1. In kind it is biochemical. Conditions: section VII comparison. The method, then:
In vitro PTPase activities were measured using the commercial protein tyrosine phosphatase assay kit (Upstate Biotechnology, Inc. (“UBI”)) following established procedure known to one of skill in the art. This assay measures the in vitro dephosphorylation of a synthetic phosphotyrosine peptide of the sequence Arg-Arg-Leu-Ile-Glu-Asp-Ala-Gle-T- -yr-Ala-Ala-Arg-Gly, wherein the tyrosine is phosphorylated (SEQ ID NO: 3). Briefly, 0.01 µg of GST/PTPase fusion proteins was incubated in 50 µl of Tris buffer (10 mM Tris, pH 7.4) containing different concentrations of inhibitors or chemicals (0-1,000 µg/ml) at 22° C. for 10 minutes, followed by addition of 0.2 mM of the phosphotyrosine peptide and incubation at 22° C. for 18 hours. 100 µl of Malachite Green solution was added and incubated for 5 minutes, and the absorbance at 660 nm was measured after 5 minutes.
(§1) In vitro PTPase assays were used to determine the effects of levamisole (Sigma), pentamidine (American Pharmaceutical Partners, Inc.), and ketoconazole (Sigma) on recombinant PTPases, following established procedures (Pathak et al., J. Imumol. 167, 3391 (2001); Pathak et al., Leukemia 16, 2285 (2002), Yi et al., J. Immunol. 169, 5978 (2002)) using a synthetic phosphotyrosine peptide or DiFMUP as the substrate as detailed above in section I.A.2.

Data set [3] addresses T3, SHP-1 (Mus musculus, UniProt P29351).
T3 construct: made in house
Nature of the data set: In vitro PTPase assay, GST/SHP-1. Type of data set: biochemical. The method, then: In vitro PTPase activities were measured using the commercial protein tyrosine phosphatase assay kit (Upstate Biotechnology, Inc. (“UBI”)) following established procedure known to one of skill in the art. […] Briefly, 0.01 µg of GST/PTPase fusion proteins was incubated in 50 µl of Tris buffer (10 mM Tris, pH 7.4) containing different concentrations of inhibitors or chemicals (0-1,000 µg/ml) at 22° […] 100 µl of Malachite Green solution was added and incubated for 5 minutes, and the absorbance at 660 nm was measured after 5 minutes.
To assess the reversibility of inhibition of SHP-1 by PTPase inhibitors, GST/SHP-1 fusion protein bound on glutathione beads were pre-incubated in cold Tris buffer or Tris buffer containing the PTPase inhibitors at 4° C. for 30 minutes. The beads were then either subjected to in vitro PTPase assays or washed 3 times in Tris buffer then subjected to in vitro PTPase assays.
Briefly, individual PTPases (0.1 µg/reaction) in 50 µL of PTPase buffer (50 mM Tris, pH 7.4) were incubated at 22° C. for 10 minutes or as indicated in the absence or presence of inhibitory compounds. Substrates (0.2 mM phosphotyrosine peptide) were then added and allowed to react at 22° C. for 18 hrs. PTPase activity of individual reactions was measured by adding 100 µL of malachite green solution (UBI) and then quantifying the amounts of free phosphate cleaved by the PTPase from the peptide substrate by spectrometry (OD660 nm). […] Relative PTPase activities were calculated based on the formula: (PTPase activity in the presence of an inhibitory compound/PTPase activity in the absence of the compound)× 100%. To assess the reversibility of PTPase inhibition, GST fusion proteins of the PTPases bound on glutathione beads (Pharmacia) were pre-incubated with cold Tris buffer (50 mM Tris, pH 7.0) or Tris buffer containing the inhibitor at 4° C. for 30 minutes. The beads were then washed three times in cold Tris buffer or not washed prior to subjecting to in vitro PTPase assays.

In data set [4] the test system is GSTm8. Nature of the data set: In vitro PTPase assay, GSTm8. Particulars: 3-4 μg/ml or 10-100 μg/ml. In kind it is biochemical.
Description: as §1

In data set [5] the target is T4, PRL-3 (Homo sapiens, UniProt O75365).
T4 construct: made in house; host or cells: E. coli DH5a
Nature of the data set: In vitro PTPase assay, recombinant PRL-3. Conditions: DiFMUP substrate. In kind it is biochemical. An excerpt: Sodium stibogluconate, suramin, sodium orthovanadate and GST fusion protein of SHP-1 have been described previously (Pathak et al., J. Imumol. 167, 3391 (2001)). Meglumine antimonate was obtained from Aventis. cDNAs of human PRL-1, PRL-2 and PRL-3 coding region were derived by RT-PCR from H9 cells (Safai, et al., Lancet 1, 1438 (1984)) and inserted in frame into the pGEX vector. cDNA of PRL-1R86 was generated by recombinant DNA technique using PRL-1 cDNA as template following established procedures (Jiao, et al., Mol. Cell. Biol. 16, 6985 (1996)). GST fusion proteins of the PRL phosphatases were prepared from DH5a bacteria transformed with the pGEX fusion protein constructs as described previously (Yi, et al., Mol. Cell. Biol. 12, 836 (1992)). cDNAs encoding the PRLs tagged at the N-termini with the Flag epitope (Castrucci, et al., J. Virol. 66, 4647 (1992)) were generated via recombinant DNA technique, sequenced to confirm their identities and cloned into the pBabepuro vector (Yang, et al., Blood 91, 3746 (1998)). Anti-Flag monoclonal antibody (M2, Sigma) was purchased from a commercial source. A synthetic phosphotyrosine peptide (Arg-Arg-Leu-Ile-Glu-Asp-Ala-Gle-Tyr-Al- -a-Ala-Arg-Gly (SEQ ID NO: 3), wherein the tyrosine is phosphorylated; UBI) and DiFMUP (6,8-difluoro-4-methylumbelliferyl phosphate, Molecular Probes) were purchased as substrates for PTPase assays.
In vitro PTPase assays were used to determine the effects of compounds on recombinant PTPases, following established procedures using a synthetic phosphotyrosine peptide or DiFMUP as the substrate (Pathak et al., J. Imumol. 167, 3391 (2001)). Briefly, individual PTPases (0.1 µg/reaction) in 50 µL of PTPase buffer (50 mM Tris, pH 7.4) were incubated at 22° C. for 10 minutes or as indicated in the absence or presence of inhibitory compounds. Substrates (0.2 mM phosphotyrosine peptide) were then added and allowed to react at 22° C. for 18 hrs. PTPase activity of individual reactions was measured by adding 100 µL of malachite green solution (UBI) and then quantifying the amounts of free phosphate cleaved by the PTPase from the peptide substrate by spectrometry (OD660 nm). PTPase assays using DiFMUP as a substrate were conducted following a previously described procedure (Matter, et al., Biochem. Biophys. Res. Comm. 283, 1061 (2001)). Relative PTPase activities were calculated based on the formula: (PTPase activity in the presence of an inhibitory compound/PTPase activity in the absence of the compound)× 100%. To assess the reversibility of PTPase inhibition, GST fusion proteins of the PTPases bound on glutathione beads (Pharmacia) were pre-incubated with cold Tris buffer (50 mM Tris, pH 7.0) or Tris buffer containing the inhibitor at 4° C. for 30 minutes. The beads were then washed three times in cold Tris buffer or not washed prior to subjecting to in vitro PTPase assays.

Data set [6] concerns the target T5, synthetic phosphotyrosine peptide Arg-Arg-Leu-Ile-Glu-Asp-Ala-Gle-Tyr-Ala-Ala-Arg-Gly, wherein the tyrosine is phosphorylated.
T5 chain: RRLIEDAEYAARG

Positions count from the first letter of the chain named.

T3 sequence (P29351 whole entry): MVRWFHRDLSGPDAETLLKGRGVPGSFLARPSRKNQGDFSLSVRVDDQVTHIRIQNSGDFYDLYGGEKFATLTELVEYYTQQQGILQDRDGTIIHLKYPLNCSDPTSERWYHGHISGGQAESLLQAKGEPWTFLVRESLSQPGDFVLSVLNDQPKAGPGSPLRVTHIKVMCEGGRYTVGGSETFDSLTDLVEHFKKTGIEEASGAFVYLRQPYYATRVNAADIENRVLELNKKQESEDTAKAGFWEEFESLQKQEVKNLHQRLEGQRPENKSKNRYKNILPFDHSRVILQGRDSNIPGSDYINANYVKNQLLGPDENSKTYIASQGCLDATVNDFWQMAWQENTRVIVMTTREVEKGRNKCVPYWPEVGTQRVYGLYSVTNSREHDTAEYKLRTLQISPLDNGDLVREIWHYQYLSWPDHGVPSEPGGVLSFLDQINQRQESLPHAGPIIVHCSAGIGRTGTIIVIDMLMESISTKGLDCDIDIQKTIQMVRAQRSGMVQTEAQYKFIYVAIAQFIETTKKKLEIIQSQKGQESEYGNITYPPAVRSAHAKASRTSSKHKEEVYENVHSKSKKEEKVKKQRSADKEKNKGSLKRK
T4 sequence (O75365 whole entry): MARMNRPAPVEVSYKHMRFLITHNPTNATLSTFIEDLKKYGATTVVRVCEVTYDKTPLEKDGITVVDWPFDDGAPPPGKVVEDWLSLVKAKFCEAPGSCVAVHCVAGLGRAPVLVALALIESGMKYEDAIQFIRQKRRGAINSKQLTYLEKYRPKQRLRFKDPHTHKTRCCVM

For “GST fusion protein of mitogen-activated protein kinase phosphatase 1 (MKP1)”, the “PTPase activity against the peptide substrate (660 nm absorbance, malachite green)” value in data set [1] is on record as 660 nm absorbance approximately 0.6 above background (0.03).
Still for that read-out and setting: the figure for GST fusion protein of SHP-1 is 660 nm absorbance approximately 0.6 above background (0.03).
On to `c1ccc([C@H]2CN3CCSC3=N2)cc1` [levamisole], for which the “inhibition of MKP1” value in data set [2] was “substantial inhibition”. In addition, the “inhibitory activity against SHP-1” value in data set [3] (3-4 μg/ml or 10-100 μg/ml) is “no obvious inhibitory activity”. In addition, the “inhibitory activity against GSTm8” value in data set [4] is “no obvious inhibitory activity”.
For the molecule `Cc1ccc(C(=O)Nc2ccc(S(=O)(=O)O)c3cc(S(=O)(=O)O)cc(S(=O)(=O)O)c23)cc1NC(=O)c1cccc(NC(=O)Nc2cccc(C(=O)Nc3cc(C(=O)Nc4ccc(S(=O)(=O)O)c5cc(S(=O)(=O)O)cc(S(=O)(=O)O)c45)ccc3C)c2)c1` [Suramin], the “inhibition of SHP-1 compared with sodium stibogluconate” value in data set [3] (comparable conditions) is given as “less effective”. Besides, the “inhibition of GST/SHP-1 after washing (reversibility)” value in data set [3] (pre-incubated with inhibitor, beads washed) was “almost completely removed by the washing process”. In data set [5], the “inhibition of PRL-3 compared with sodium stibogluconate” value is given as “less effective”.
GST fusion protein of SHP-2: the “PTPase activity against the peptide substrate (660 nm absorbance, malachite green)” value in data set [1] is reported as 660 nm absorbance approximately 0.6 above background (0.03).
`[Na+].[Na+].[Na+].[O]=[V]([O-])([O-])[O-]` [sodium orthovanadate]: the “inhibition of PRL-3 compared with sodium stibogluconate” value in data set [5] was “less effective”.
Regarding “GST fusion protein of protein tyrosine phosphatase 1B (PTP1B)”, the “PTPase activity against the peptide substrate (660 nm absorbance, malachite green)” value in data set [1] was 660 nm absorbance approximately 0.6 above background (0.03).

B1: GST fusion protein of PRL-1R86 (protein)
chain: MARMNRPAPVEVTYKNMRFLITHNPTNATLNKFIEELKKYGVTTIVRVCEATYDTTLVEKEGIHVLDWPFDDGAPPSNQIVDDWLRLVKIKFREEPGCCIAVHCVAGLGRAPVLVALALIEGGMKYEDAVQFIRQKRRGAFNSKQLLYLEKYRPKMRLRFKDSNGHRNNCCIQ
For B1, the “in vitro PTPase activity” value in data set [6] is reported as “showed in vitro PTPase activity similar to that of wild type PRL-1”.

B2: Flag-PRL-1 (protein)
chain: B1 chain with R86S
As to B2, in data set [6], the “PTPase activity of anti-Flag immunocomplexes (NIH3T3 transfectants)” value is reported as “a markedly higher PTPase activity (about 23 folds) over that of control transfectants” and the “phosphatase activity of anti-Flag immunocomplexes (WM9 transfectants)” value is “showed phosphatase activities well above the background activity of the vector control cells”.

B3: Flag-PRL-1R86 (protein)
chain: B1 chain
For B3, the “phosphatase activity of anti-Flag immunocomplexes (WM9 transfectants)” value in data set [6] is “showed phosphatase activities well above the background activity of the vector control cells”.

Source of the values: patent publication US20080089860A1, “Therapeutic compositions and methods useful in treating cancer” (priority 2006, published 2008).
